# Measurements published in patent US20040235115A1.
# T1: streptokinase, P00779
# T1 chain: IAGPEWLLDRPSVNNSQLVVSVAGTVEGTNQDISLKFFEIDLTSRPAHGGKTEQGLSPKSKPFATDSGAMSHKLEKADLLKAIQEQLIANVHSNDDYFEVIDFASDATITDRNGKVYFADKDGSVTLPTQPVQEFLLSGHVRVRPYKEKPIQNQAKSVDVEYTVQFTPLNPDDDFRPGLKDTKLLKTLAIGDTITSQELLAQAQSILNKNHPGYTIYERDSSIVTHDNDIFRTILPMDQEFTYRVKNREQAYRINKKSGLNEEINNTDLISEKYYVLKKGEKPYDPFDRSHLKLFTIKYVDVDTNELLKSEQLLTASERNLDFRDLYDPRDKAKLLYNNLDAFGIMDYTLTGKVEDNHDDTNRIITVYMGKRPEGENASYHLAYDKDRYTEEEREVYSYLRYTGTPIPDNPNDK
# Molecular target: T1, streptokinase, P00779
row,Protein,"activation of microplasminogen by streptokinase (S2251 cleavage, A405)"
1,loop 7 chimeric microplasminogen (protein) APSFDCGKPQVEPKKCPGRVVGGCVAHPHSWPWQVSLRTRFGMHFCGGTLISPEWVLTAAHCLEKSPRPSSYKVILGAHQEVNLEPHVQEIEVSRLFLHPDSQPDTIDHDIALLKLSSPAVITDKVIPACLPSPNYVVADRTECFITGWGETQGTFGAGLLKEAQLPVIENKVCNRYEFLNGRVQSTELCAGHLAGGTDSCQGDSGGPLVCFEKDKYILQGVTSWGLGCARPNKPGVYVRVSRFVTWIEGVMRNN,all three loop mutants were not efficiently activated by the bacterial plasminogen activator streptokinase
2,loop 5 chimeric microplasminogen (protein) APSFDCGKPQVEPKKCPGRVVGGCVAHPHSWPWQVSLRTRFGMHFCGGTLISPEWVLTAAHCLEDAADGKVKVILGAHQEVNLEPHVQEIEVSRLFLEPTRKDIALLKLSSPAVITDKVIPACLPSPNYVVADRTECFITGWGETQGTFGAGLLKEAQLPVIENKVCNRYEFLNGRVQSTELCAGHLAGGTDSCQGDSGGPLVCFEKDKYILQGVTSWGLGCARPNKPGVYVRVSRFVTWIEGVMRNN,all three loop mutants were not efficiently activated by the bacterial plasminogen activator streptokinase
3,loop 3 chimeric microplasminogen (protein) APSFDCGKPQVEPKKCPGRVVGGCVAHPHSWPWQVSLRLNGAHFCGGTLISPEWVLTAAHCLEKSPRPSSYKVILGAHQEVNLEPHVQEIEVSRLFLEPTRKDIALLKLSSPAVITDKVIPACLPSPNYVVADRTECFITGWGETQGTFGAGLLKEAQLPVIENKVCNRYEFLNGRVQSTELCAGHLAGGTDSCQGDSGGPLVCFEKDKYILQGVTSWGLGCARPNKPGVYVRVSRFVTWIEGVMRNN,all three loop mutants were not efficiently activated by the bacterial plasminogen activator streptokinase
